The source of these data is patent US20240279318A1 (NANJING LEGEND BIOTECH, published 2024).

The target of test [1] is T1, AFP158/HLA-A*02:01 complex (human).
T1 construct: flowed over the chip in SPR; also called AFP158 pro
Nature of the test: SPR, KD ratio to AS170036 VL1VH1.
Description: (§1) The experiment was carried out as follows. The crude scFv protein were captured onto the sensorchip. Different concentrations (320, 160, 40 nM) of AFP158/HLA-A*02:01 complex flowed over the sensorchip surface, and were allowed to bind the antibody fragment for 100 s followed by injection of the running buffer to allow dissociation of the complex. On-rate (kd) and off-rate (kd) were calculated based on association and dissociation curve, and were used to estimate the equilibrium dissociation constant (KD).

The target of test [2] is T1, AFP158/HLA-A*02:01 complex. Nature of the test: SPR, scFv captured, pMHC in flow.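 Further: complex injected at several concentrations over crude scFv, association then running-buffer dissociation, KD estimated from kinetic on- and off-rate constants.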
Description: as §1
The target in test [3] is T1, AFP158/HLA-A*02:01 complex. Nature of the test: SPR, KD ratio to AS170036 VL1VH1.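 Further: crude scFv captured on a sensor chip, peptide–HLA complex passed over at several concentrations, association then buffer dissociation, KD derived from on- and off-rates.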 This is another data set of the same source.
For test [4], the target named is T1, AFP158/HLA-A*02:01 complex. Nature of the test: SPR, scFv captured, pMHC in flow.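 Further: complex injected at several concentrations over crude scFv, association then running-buffer dissociation, KD estimated from kinetic on- and off-rate constants.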 The source holds these as a separate data set.
Description: as §1

Read-outs that look alike come from different tables or passages of the source.

B1: LE32G (scFv)
scFv: QSALTQPRSVSGSPGQSVTISCAGTSSDVGSGNYVSWYQQHPGKAPKLMIYQVNKRASGVPDRFSGSKSGNTASLTISGLQAEDEADYYCASYRSSDHNIVFGGGTKLTVLGGGGSGGGGSGGGGSEVQLVESGGGLVQPGGSLRLSCAASGFTFSSYAMSWVRQAPGKGLEWVSTINSGTGSPYYADSVKGRFTISRDNSKNTLYLQMNSLRAEDTAVYYCAKNFFDGSWFLGPPAMDYWGQGTLVTVSSHHHHHH
notes: AS170036 VL1VH1 scFv mutein
For the molecule B1, the Affinity increase in test [1] and in test [3] was 0.7 fold throughout. For the same molecule, the Kd in test [2] and in test [4] was 350 nM each time.

B2: LE32Y (scFv)
scFv: QSALTQPRSVSGSPGQSVTISCAGTSSDVGSYNYVSWYQQHPGKAPKLMIYQVNKRASGVPDRFSGSKSGNTASLTISGLQAEDEADYYCASYRSSDHNIVFGGGTKLTVLGGGGSGGGGSGGGGSEVQLVESGGGLVQPGGSLRLSCAASGFTFSSYAMSWVRQAPGKGLEWVSTINSGTGSPYYADSVKGRFTISRDNSKNTLYLQMNSLRAEDTAVYYCAKNFFDGSWFLGPPAMDYWGQGTLVTVSSHHHHHH
notes: AS170036 VL1VH1 scFv mutein
On to B2, for which the Affinity increase in test [1] and in test [3] was 0.6 fold in each case. The Kd in test [2] and in test [4] was 430 nM each time.

B3: LH98I (scFv)
scFv: QSALTQPRSVSGSPGQSVTISCAGTSSDVGSENYVSWYQQHPGKAPKLMIYQVNKRASGVPDRFSGSKSGNTASLTISGLQAEDEADYYCASYRSSDINIVFGGGTKLTVLGGGGSGGGGSGGGGSEVQLVESGGGLVQPGGSLRLSCAASGFTFSSYAMSWVRQAPGKGLEWVSTINSGTGSPYYADSVKGRFTISRDNSKNTLYLQMNSLRAEDTAVYYCAKNFFDGSWFLGPPAMDYWGQGTLVTVSSHHHHHH
notes: AS170036 VL1VH1 scFv mutein; also called AS170036 VL1VH1-VLH98I
In the case of B3, the Affinity increase in test [1] and in test [3] was 3.1 fold in each case. Moreover, the Kd in test [2] and in test [4] was 78 nM each time.

B4: LH98L (scFv)
scFv: QSALTQPRSVSGSPGQSVTISCAGTSSDVGSENYVSWYQQHPGKAPKLMIYQVNKRASGVPDRFSGSKSGNTASLTISGLQAEDEADYYCASYRSSDLNIVFGGGTKLTVLGGGGSGGGGSGGGGSEVQLVESGGGLVQPGGSLRLSCAASGFTFSSYAMSWVRQAPGKGLEWVSTINSGTGSPYYADSVKGRFTISRDNSKNTLYLQMNSLRAEDTAVYYCAKNFFDGSWFLGPPAMDYWGQGTLVTVSSHHHHHH
notes: AS170036 VL1VH1 scFv mutein
For B4, the Affinity increase in test [1] and in test [3] was 1.2 fold throughout. Moreover, the dissociation constant (Kd) in test [2] and in test [4] was 200 nM in each case.

B5: LH98F (scFv)
scFv: QSALTQPRSVSGSPGQSVTISCAGTSSDVGSENYVSWYQQHPGKAPKLMIYQVNKRASGVPDRFSGSKSGNTASLTISGLQAEDEADYYCASYRSSDFNIVFGGGTKLTVLGGGGSGGGGSGGGGSEVQLVESGGGLVQPGGSLRLSCAASGFTFSSYAMSWVRQAPGKGLEWVSTINSGTGSPYYADSVKGRFTISRDNSKNTLYLQMNSLRAEDTAVYYCAKNFFDGSWFLGPPAMDYWGQGTLVTVSSHHHHHH
notes: AS170036 VL1VH1 scFv mutein; also called AS170036 VL1VH1-VLH98F
As to B5, the Affinity increase in test [1] and in test [3] was 3.3 fold each time. For the same molecule, the Kd in test [2] and in test [4] was 74 nM each time.

B6: LE32S (scFv)
scFv: QSALTQPRSVSGSPGQSVTISCAGTSSDVGSSNYVSWYQQHPGKAPKLMIYQVNKRASGVPDRFSGSKSGNTASLTISGLQAEDEADYYCASYRSSDHNIVFGGGTKLTVLGGGGSGGGGSGGGGSEVQLVESGGGLVQPGGSLRLSCAASGFTFSSYAMSWVRQAPGKGLEWVSTINSGTGSPYYADSVKGRFTISRDNSKNTLYLQMNSLRAEDTAVYYCAKNFFDGSWFLGPPAMDYWGQGTLVTVSSHHHHHH
notes: AS170036 VL1VH1 scFv mutein
Consider B6, for which the Affinity increase in test [1] and in test [3] was 0.5 fold in each case. Besides, the Kd in test [2] and in test [4] was 500 nM each time.

B7: LH98A (scFv)
scFv: QSALTQPRSVSGSPGQSVTISCAGTSSDVGSENYVSWYQQHPGKAPKLMIYQVNKRASGVPDRFSGSKSGNTASLTISGLQAEDEADYYCASYRSSDANIVFGGGTKLTVLGGGGSGGGGSGGGGSEVQLVESGGGLVQPGGSLRLSCAASGFTFSSYAMSWVRQAPGKGLEWVSTINSGTGSPYYADSVKGRFTISRDNSKNTLYLQMNSLRAEDTAVYYCAKNFFDGSWFLGPPAMDYWGQGTLVTVSSHHHHHH
notes: AS170036 VL1VH1 scFv mutein; also called AS170036 VL1VH1-VLH98A
Take B7: the Affinity increase in test [1] and in test [3] was 2.3 fold each time. Moreover, the Kd in test [2] and in test [4] was 110 nM throughout.

B8: LH98G (scFv)
scFv: QSALTQPRSVSGSPGQSVTISCAGTSSDVGSENYVSWYQQHPGKAPKLMIYQVNKRASGVPDRFSGSKSGNTASLTISGLQAEDEADYYCASYRSSDGNIVFGGGTKLTVLGGGGSGGGGSGGGGSEVQLVESGGGLVQPGGSLRLSCAASGFTFSSYAMSWVRQAPGKGLEWVSTINSGTGSPYYADSVKGRFTISRDNSKNTLYLQMNSLRAEDTAVYYCAKNFFDGSWFLGPPAMDYWGQGTLVTVSSHHHHHH
notes: AS170036 VL1VH1 scFv mutein
Consider B8, for which the Affinity increase in test [1] and in test [3] was 0.9 fold each time. The Kd in test [2] and in test [4] was 280 nM each time.

B9: LH98M (scFv)
scFv: QSALTQPRSVSGSPGQSVTISCAGTSSDVGSENYVSWYQQHPGKAPKLMIYQVNKRASGVPDRFSGSKSGNTASLTISGLQAEDEADYYCASYRSSDMNIVFGGGTKLTVLGGGGSGGGGSGGGGSEVQLVESGGGLVQPGGSLRLSCAASGFTFSSYAMSWVRQAPGKGLEWVSTINSGTGSPYYADSVKGRFTISRDNSKNTLYLQMNSLRAEDTAVYYCAKNFFDGSWFLGPPAMDYWGQGTLVTVSSHHHHHH
notes: AS170036 VL1VH1 scFv mutein
With B9, the Affinity increase in test [1] and in test [3] was 1.8 fold throughout. Moreover, the Kd in test [2] and in test [4] was 140 nM throughout.

B10: LE32W (scFv)
scFv: QSALTQPRSVSGSPGQSVTISCAGTSSDVGSWNYVSWYQQHPGKAPKLMIYQVNKRASGVPDRFSGSKSGNTASLTISGLQAEDEADYYCASYRSSDHNIVFGGGTKLTVLGGGGSGGGGSGGGGSEVQLVESGGGLVQPGGSLRLSCAASGFTFSSYAMSWVRQAPGKGLEWVSTINSGTGSPYYADSVKGRFTISRDNSKNTLYLQMNSLRAEDTAVYYCAKNFFDGSWFLGPPAMDYWGQGTLVTVSSHHHHHH
notes: AS170036 VL1VH1 scFv mutein; also called AS170036 VL1VH1-VLE32W
Consider B10, for which the Affinity increase in test [1] and in test [3] was 2.4 fold in each case. In addition, the Kd in test [2] and in test [4] was 100 nM in each case.

B11: LH98N (scFv)
scFv: QSALTQPRSVSGSPGQSVTISCAGTSSDVGSENYVSWYQQHPGKAPKLMIYQVNKRASGVPDRFSGSKSGNTASLTISGLQAEDEADYYCASYRSSDNNIVFGGGTKLTVLGGGGSGGGGSGGGGSEVQLVESGGGLVQPGGSLRLSCAASGFTFSSYAMSWVRQAPGKGLEWVSTINSGTGSPYYADSVKGRFTISRDNSKNTLYLQMNSLRAEDTAVYYCAKNFFDGSWFLGPPAMDYWGQGTLVTVSSHHHHHH
notes: AS170036 VL1VH1 scFv mutein
In the case of B11, the Affinity increase in test [1] and in test [3] was 1.5 fold each time. In addition, the Kd in test [2] and in test [4] was 160 nM each time.
